Measured values published in publication doi:10.1101/2021.08.02.454546 (bioRxiv, 2021).

Experiments:
[1] = target: T1, SARS-CoV-2 S2 peptide #288 (1149-KEELDKYFKNHTSPD-1163) (SARS-CoV-2 (spike 1149-1163, matches …)); test: ELISA; conditions: both partners purified
T1 chain: KEELDKYFKNHTSPD

[2] = target: T2, shorter version of peptide #289 (1153-DKYFKNHTSPD-1163) (SARS-CoV-2 (spike 1153-1163, matches …)); test: SPR; conditions: both partners purified
T2 chain: DKYFKNHTSPD

B1: CV3–25 IgG (antibody, V domains shown)
VH: EVQLVESGAEVKKPGESLKISCKGSGYTFTRYWIGWVRQMPGKGLEWMGIIYPGDSDTRYSPSFQGHVTISADKSISTAYLQWNSLKASDTAMYYCARLPQYCSNGVCQRWFDPWGQGTLVTVSS
VL: EIVLTQSPSSVSASVGDRVTITCRASQGISSWLAWYQQKPGKAPKLLIYAASSLQSGVPSRFSGSGSGTDFTLTISSLQPEDFATYYCQQGNSFPYTFGQGTNLEIK
Question: What does the source list for B1?
Answer: binding result [1]: binds; Kd [2]: ~1000 nM
